Measured values: article PMC12054373

Key:
[1] = biological target: T1, bS21 (Halalkalibacterium halodurans C-125?) (UniProt Q9KD65); assay: filter binding; details: Filter binding: 20 mM Tris-HCl pH 7.5, 150 mM NaCl, 10 mM MgCl2, 1 mM TCEP, 5% glycerol, 0.001% SDS, ~2.5 nM RNA, 20°C, 15 min; in-line probing buffer not in …
T1 sequence: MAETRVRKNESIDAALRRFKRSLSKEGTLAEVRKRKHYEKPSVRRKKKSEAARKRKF

[2] = biological target: T1, bS21 (Halalkalibacterium halodurans C-125?); assay: footprinting (in-line probing); details: Filter binding: 20 mM Tris-HCl pH 7.5, 150 mM NaCl, 10 mM MgCl2, 1 mM TCEP, 5% glycerol, 0.001% SDS, ~2.5 nM RNA, 20°C, 15 min; in-line probing buffer not in …

Row | Sequence | binding [1] | binding [2]
1 | GGAUCGAUGAAGCUCCUUGUGAUGGCUUGAGGCGCCCAGCCUUGGGUCAUUGCUGGGAGAAAAGGUAGUAGGGCGAUCCACAAAGGCAUGUGGGCGAUGACCCUCCUACUG [OLE83-191 WT] | binds | binds
2 | GGCAUUUAAAGAGGAUUACAGUGUGGACUAAGUGGUAAUCCAGUCUGGCGUUUGGUGACAGCGCCAAGUUCAACAUAAAGGGAAACCGCCAGCGCGGCGACGCACUGGUGUUGAAUUGGGAAAUCCUACUGGACCUAAGCCACAGAGUUUACUCUUUAAAUG [OLE449-608] | binds more weakly | 
3 | GGGGCACAUCGAUGAAGCUCCUUGUGAUGGCUUGAGGCGCCCAGCCUUGGGUCAUUGCUGGGAGAAAAGGUAGUAGGGCGAUCCACAAAGGCAUGUGGGCGAUGACCCUCCUACUGUGGAGGCCUUUUUCUCUGCUGCUUAUGUAUGGACAUAGGGCAAGAGCAAAGGGUAUGAACCUGCGAAGGCAAGCUAGGGAGCUUGUCAGCAGCGUAGCC [OLE78-290] | binds | binds
